How the values were obtained:
[1] = molecular target: AMPA receptor GluA2 from rat with deletion of the disordered intracellular C-terminal domain (GluA2cryst) (rat) (UniProt P19491); test: small-angle neutron scattering (SANS), molecular weight by Fischer analysis; with 1 mM GYKI-53655; 0.31 mg/ml (0.84 uM) GluA2 in D2O-based buffer with 0.5 mM matched-out deuterated DDM; 10°C; oligomeric state from MW against the construct's 368 kDa
[2] = molecular target: AMPA receptor GluA2 from rat with deletion of the disordered intracellular C-terminal domain (GluA2cryst) (rat) (UniProt P19491); test: small-angle neutron scattering (SANS), molecular weight by Fischer analysis; resting state (apo); 0.20 mg/ml (0.54 uM) GluA2 in D2O-based buffer, 20 mM Tris-DCl pH 7.5, 100 mM NaCl, 0.5 mM matched-out deuterated DDM; 10°C; oligomeric state from MW against the construct's 368 kDa
[3] = molecular target: AMPA receptor GluA2 from rat with deletion of the disordered intracellular C-terminal domain (GluA2cryst) (rat) (UniProt P19491); test: small-angle neutron scattering (SANS), molecular weight by Fischer analysis; with 10 mM AMPA, pH 5.5; 0.17 mg/ml (0.46 uM) GluA2 in D2O-based buffer with 0.5 mM matched-out deuterated DDM; 10°C; oligomeric state from MW against the construct's 368 kDa
[4] = molecular target: AMPA receptor GluA2 from rat with deletion of the disordered intracellular C-terminal domain (GluA2cryst) (rat) (UniProt P19491); test: small-angle neutron scattering (SANS), molecular weight by Fischer analysis; with 1 mM AMPA, pH 7.5; 0.31 mg/ml (0.84 uM) GluA2 in D2O-based buffer with 0.5 mM matched-out deuterated DDM; 10°C; oligomeric state from MW against the construct's 368 kDa

Measured: stoichiometry N

AMPA receptor GluA2 from rat with deletion of the disordered intracellular C-terminal domain (GluA2cryst) (from UniProt P19491 22-883)
4: [1] | [2] | [3] | [4]

From publication PMC6211538
